Experimental findings from paper PMC3637252, “Structural Basis of the Induced-Fit Mechanism of 1,4-Dihydroxy-2-Naphthoyl Coenzyme A Synthase from the Crotonase Fold Superfamily” (PLoS ONE, 2013) are described below.

As a reminder, the Km is the concentration of substrate that gives half-maximal velocity. As a reminder, the kcat is the maximal rate divided by the concentration of active sites. As usually defined, the kcat/Km is the second-order rate constant that governs catalysis at low substrate concentration. As a reminder, the stoichiometry N is the number of molecules, sites or subunits per partner or assembly.

The target of data set [1] is T1, scMenB (Synechocystis sp. PCC 6803, UniProt P73495).
T1 construct: gene menB; recombinant, purified to homogeneity; homohexamer
T1 sequence (P73495 1-275): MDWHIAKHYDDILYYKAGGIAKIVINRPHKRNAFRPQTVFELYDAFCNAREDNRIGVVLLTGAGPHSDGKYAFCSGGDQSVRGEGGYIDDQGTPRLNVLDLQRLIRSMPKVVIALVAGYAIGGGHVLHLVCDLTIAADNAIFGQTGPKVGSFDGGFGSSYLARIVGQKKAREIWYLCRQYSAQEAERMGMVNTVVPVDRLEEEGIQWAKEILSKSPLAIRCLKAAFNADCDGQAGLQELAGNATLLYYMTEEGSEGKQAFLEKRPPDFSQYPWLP
Put plainly: X-ray crystal structure, […] Å. Type of data set: binding. Particulars: pH 6.0.

The target of data set [2] is T1, scMenB. Kind of data set: X-ray crystal structure, […] Å. The data set is classed as binding. Particulars: co-crystal, pH 5.70; active site, product analog; chloride at the bicarbonate site.
For the next data set, the target named is T2, ecMenB (Escherichia coli, UniProt P0ABU0).
T2 construct: gene menB; recombinant; homohexamer, active site formed by two subunits across the trimer-trimer interface
Kind of data set: X-ray crystal structure, […] Å. Type of data set: binding. To be noted: co-crystal, pH 5.5; active site, product analog; chloride at the bicarbonate site.

Substrate in the data set “purified protein”: CC(C)(COP(=O)(O)OP(=O)(O)OC[C@H]1O[C@@H](n2cnc3c(N)ncnc32)[C@H](O)[C@@H]1OP(=O)(O)O)[C@@H](O)C(=O)NCCC(=O)NCCSC(=O)CCC(=O)c1ccccc1C(=O)O
Put plainly: purified protein. The data set is classed as biochemical, Escherichia coli. To be noted: 200 mM phosphate pH 7.0, 20 mM NaHCO3, OSB-CoA made in situ from SHCHC with MenC and MenE.

Data set [3] deals with the molecule itself. Put plainly: crystal structure; ecMenB co-crystallised with HNA-CoA; hanging drop, 294 K; 200 mM (NH4)2SO4, 23% PEG 3,350, 100 mM Bis-Tris pH 5.5; protein 10 mg/ml with 10 mM NaHCO3, 10 mM HNA-CoA, 20 mM KCl; 1.84 A.
Data set [4] deals with the molecule itself. Kind of data set: crystal structure; scMenB (5 mg/ml) co-crystallised with 5 mM HNA-CoA; 0.15 M ammonium acetate, 0.3 M ammonium sulfate, 16% PEG 3350, 100 mM Bis-Tris pH 5.70; 2.35 A.

With `CC(C)(COP(=O)(O)OP(=O)(O)OC[C@H]1O[C@@H](n2cnc3c(N)ncnc32)[C@H](O)[C@@H]1OP(=O)(O)O)[C@@H](O)C(=O)NCCC(=O)NCCSC(=O)c1ccccc1O` [salicyloyl-CoA], the “X-ray crystal structure, 2.00 Å” value on scMenB [1] (co-crystal, active site, product analog, bicarbonate bound) was “structures of the yellowish scMenB: HNA-CoA and colorless scMenB: SA-CoA crystals were also solved”.

Turning to `CC(C)(COP(=O)(O)OP(=O)(O)OC[C@H]1O[C@@H](n2cnc3c(N)ncnc32)[C@H](O)[C@@H]1OP(=O)(O)O)[C@@H](O)C(=O)NCCC(=O)NCCSC(=O)c1ccc2ccccc2c1O` [1-hydroxy-2-naphthoyl-CoA], at scMenB [2], the “X-ray crystal structure, 2.35 Å” value was “structures of the yellowish scMenB: HNA-CoA and colorless scMenB: SA-CoA crystals were also solved”. Besides, the “X-ray crystal structure, 1.84 Å” value at ecMenB is reported as “The ecMenB:HNA-CoA complex structure was solved by molecular replacement”.

Regarding `O=C(O)O` [bicarbonate], on scMenB [1] (ternary complex with SA-CoA, bicarbonate site), the “X-ray crystal structure, 2.00 Å” value is listed as “a bicarbonate ion is found in the place of the chloride ion”.

B1: ecMenB (Escherichia coli K-12; F270A) (protein)
chain: MIYPDEAMLYAPVEWHDCSEGFEDIRYEKSTDGIAKITINRPQVRNAFRPLTVKEMIQALADARYDDNIGVIILTGAGDKAFCSGGDQKVRGDYGGYKDDSGVHHLNVLDFQRQIRTCPKPVVAMVAGYSIGGGHVLHMMCDLTIAADNAIFGQTGPKVGSFDGGWGASYMARIVGQKKAREIWFLCRQYDAKQALDMGLVNTVVPLADLEKETVRWCREMLQNSPMALRCLKAALNADCDGQAGLQELAGNATMLFYMTEEGQEGRNAANQKRQPDFSKFKRNP
notes: recombinant; homohexamer, active site formed by two subunits across the trimer-trimer interface
For B1, in the data set “purified protein”, the Michaelis-Menten constant (Km) is 19.7 ± 3.9 µM, the kcat turned out to be 0.0035 ± 0.000167 s⁻¹ and the kcat/Km was 180 ± 10 M⁻¹ s⁻¹.

B2: ecMenB (Escherichia coli K-12; R267A) (protein)
chain: MIYPDEAMLYAPVEWHDCSEGFEDIRYEKSTDGIAKITINRPQVRNAFRPLTVKEMIQALADARYDDNIGVIILTGAGDKAFCSGGDQKVRGDYGGYKDDSGVHHLNVLDFQRQIRTCPKPVVAMVAGYSIGGGHVLHMMCDLTIAADNAIFGQTGPKVGSFDGGWGASYMARIVGQKKAREIWFLCRQYDAKQALDMGLVNTVVPLADLEKETVRWCREMLQNSPMALRCLKAALNADCDGQAGLQELAGNATMLFYMTEEGQEGANAFNQKRQPDFSKFKRNP
notes: as for B1
B2: in the data set “purified protein”, the Km was 16.6 ± 1.0 µM, the kcat is 0.00267 ± 0.000167 s⁻¹ and the specificity constant (kcat/Km) was determined as 160 ± 20 M⁻¹ s⁻¹.

B3: 1,4-dihydroxy-2-naphthoyl coenzyme A (DHNA-CoA) synthase from Escherichia coli (enzyme)
chain: MIYPDEAMLYAPVEWHDCSEGFEDIRYEKSTDGIAKITINRPQVRNAFRPLTVKEMIQALADARYDDNIGVIILTGAGDKAFCSGGDQKVRGDYGGYKDDSGVHHLNVLDFQRQIRTCPKPVVAMVAGYSIGGGHVLHMMCDLTIAADNAIFGQTGPKVGSFDGGWGASYMARIVGQKKAREIWFLCRQYDAKQALDMGLVNTVVPLADLEKETVRWCREMLQNSPMALRCLKAALNADCDGQAGLQELAGNATMLFYMTEEGQEGRNAFNQKRQPDFSKFKRNP
notes: DHNA-CoA synthase MenB, Escherichia coli; Crystallised with the small-molecule product analog HNA-CoA; also called ecMenB; MenB
As for B3, the “stoichiometry N” value in data set [3] was found to be 6.

B4: ecMenB (Escherichia coli K-12; K89A) (protein)
chain: MIYPDEAMLYAPVEWHDCSEGFEDIRYEKSTDGIAKITINRPQVRNAFRPLTVKEMIQALADARYDDNIGVIILTGAGDKAFCSGGDQAVRGDYGGYKDDSGVHHLNVLDFQRQIRTCPKPVVAMVAGYSIGGGHVLHMMCDLTIAADNAIFGQTGPKVGSFDGGWGASYMARIVGQKKAREIWFLCRQYDAKQALDMGLVNTVVPLADLEKETVRWCREMLQNSPMALRCLKAALNADCDGQAGLQELAGNATMLFYMTEEGQEGRNAFNQKRQPDFSKFKRNP
notes: as for B1
For the molecule B4, in the data set “purified protein”, the Km amounted to 43.3 ± 2.0 µM, the kcat stood at 0.0383 ± 0.00133 s⁻¹ and the kcat/Km stood at 890 ± 30 M⁻¹ s⁻¹.

B5: 1,4-dihydroxy-2-naphthoyl coenzyme A (DHNA-CoA) synthase from Synechocystis sp. PCC 6803 (enzyme)
chain: MDWHIAKHYDDILYYKAGGIAKIVINRPHKRNAFRPQTVFELYDAFCNAREDNRIGVVLLTGAGPHSDGKYAFCSGGDQSVRGEGGYIDDQGTPRLNVLDLQRLIRSMPKVVIALVAGYAIGGGHVLHLVCDLTIAADNAIFGQTGPKVGSFDGGFGSSYLARIVGQKKAREIWYLCRQYSAQEAERMGMVNTVVPVDRLEEEGIQWAKEILSKSPLAIRCLKAAFNADCDGQAGLQELAGNATLLYYMTEEGSEGKQAFLEKRPPDFSQYPWLP
notes: DHNA-CoA synthase MenB, Synechocystis sp; PCC 6803; wild type; Crystallised with the small-molecule product analogs HNA-CoA or SA-CoA; also called scMenB; MenB
B5: the “stoichiometry N” value in data set [4] came out at 6.
